According to US9243044B2, “Anticoagulant polypeptide and applications thereof” (GUANGDONG MEDICAL COLLEGE, priority 2011, dated 2016):

T1: human fXIIa (Homo sapiens, UniProt P00748)
T1 construct: Human coagulation factors IIa (thrombin), Xa, XIa, XIIa, EGR-fXa; purchased Haematologic Technologies Inc (United States)
T1 sequence (P00748 373-615 limits assumed): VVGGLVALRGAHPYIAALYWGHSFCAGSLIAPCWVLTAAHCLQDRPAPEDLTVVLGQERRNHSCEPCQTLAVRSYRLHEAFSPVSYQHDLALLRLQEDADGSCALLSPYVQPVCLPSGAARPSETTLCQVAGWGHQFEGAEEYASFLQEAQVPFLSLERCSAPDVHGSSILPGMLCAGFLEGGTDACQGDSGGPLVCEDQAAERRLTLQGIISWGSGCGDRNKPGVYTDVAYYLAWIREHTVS
T1 sequence (P00748 20-372 limits assumed): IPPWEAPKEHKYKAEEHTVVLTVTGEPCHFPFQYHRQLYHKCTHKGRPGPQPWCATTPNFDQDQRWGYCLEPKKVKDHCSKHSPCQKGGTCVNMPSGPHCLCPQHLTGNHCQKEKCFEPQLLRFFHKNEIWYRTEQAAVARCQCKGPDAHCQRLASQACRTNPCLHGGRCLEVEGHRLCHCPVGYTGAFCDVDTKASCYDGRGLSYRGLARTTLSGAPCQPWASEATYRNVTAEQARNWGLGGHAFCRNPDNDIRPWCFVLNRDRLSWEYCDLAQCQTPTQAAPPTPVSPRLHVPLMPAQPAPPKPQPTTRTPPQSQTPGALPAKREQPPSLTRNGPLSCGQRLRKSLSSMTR

B1: NAPTin-7 (protein)
chain: NPSCGENERHDECSRKECDPKCKYDGTEEKDDEKPVVCLTRVCYGDCICRDGFLRNKNGACVKAEDC
modifications: Sequence derived from Ancylostoma caninum or Synthetic
B2: NAPTin-9 (protein)
chain: NPSCGENERHDECSRKECDPKCKYDGTEEKDDEKPVVCLTRVCYGDCICRDGFLRNKNGACVKAEDCELDNMEFI
modifications: Sequence derived from Ancylostoma caninum or Synthetic
B3: NAPTin-8 (protein)
chain: NPSCGENERHDECSRKECDPKCKYDGTEEKDDEKPVVCLTRVCYGDCICRDGFLRNKNGACVKAEDCELDNMEF
modifications: Sequence derived from Ancylostoma caninum or Synthetic
B4: NAPTin-3 (protein)
chain: NPSCGENERHDECSRKECDPKCKYDGTEEKDDEKPVVCLTRVCYGDCICRDGFLRNKNGACVKAEDCELDNM
modifications: Sequence derived from Ancylostoma caninum or Synthetic
B5: NAPTin-5 (protein)
chain: NPSCGENERHDECSRKECDPKCKYDGTEEKDDEKPVVCLTRVCYGDCICRDGFLRNKNGACVKAEDCEL
modifications: Sequence derived from Ancylostoma caninum or Synthetic

Columns and labels:
normal human plasma [1] = assay: aPTT assay in normal human plasma; assay type: biochemical; settings: for prolongation of aPTT (in words): 100 nM and 500 nM; for aPTT: normal human plasma; for multiples of prolonging aPTT: ratio of mean aPTT to blank control
Experimental: (§1) The recombinant anticoagulant polypeptides were expressed in Escherichia coli and purified in our laboratory. Anticoagulant activity was determined by measuring the aPTT and PT.
For the aPTT assay, 10 μl recombinant protein at various concentrations was mixed with 50 μl fresh normal human plasma, 20 μl aPTT reagent (MDC Hemostasis, Germany) and incubated for 15 mins at 37° C. 20 μl 0.05 mol/L prewarmed CaCl2 was then added to initiate the clotting reaction. The clotting time was measured with the absorbance at 630 nm by using an E1x808 kinetic microtiter reader (BioTek, United States). Each concentration was repeated 3 times. The ratio of the mean aPTT value of each concentration to blank control group is multiples of prolonging the aPTT.

normal human plasma [2] = assay: PT assay in normal human plasma; assay type: biochemical; settings: for PT: normal human plasma
Experimental: as §1
For the PT assay, 10 μl recombinant protein at various concentration was mixed with 45 μl normal human plasma and incubated for 15 mins at 37° C. 45 μl prewarmed PT reagent (MDC Hemostasis, Germany) was then added and the clotting time was measured with the absorbance at 630 nm by using an E1x808 kinetic microtiter reader (BioTek, United States). Each concentration was repeated 3 times.

human fXIa = target: T2, human fXIa (Homo sapiens, UniProt P03951); assay: Chromogenic assay, fXIa; assay type: biochemical; settings: for inhibition of the activity of fXIa: 100 nM; for inhibition of the activity of fXIa (in words): 200 nM
T2 construct: Human coagulation factors IIa (thrombin), Xa, XIa, XIIa, EGR-fXa; purchased Haematologic Technologies Inc (United States)
T2 sequence (P03951 19-387 limits assumed): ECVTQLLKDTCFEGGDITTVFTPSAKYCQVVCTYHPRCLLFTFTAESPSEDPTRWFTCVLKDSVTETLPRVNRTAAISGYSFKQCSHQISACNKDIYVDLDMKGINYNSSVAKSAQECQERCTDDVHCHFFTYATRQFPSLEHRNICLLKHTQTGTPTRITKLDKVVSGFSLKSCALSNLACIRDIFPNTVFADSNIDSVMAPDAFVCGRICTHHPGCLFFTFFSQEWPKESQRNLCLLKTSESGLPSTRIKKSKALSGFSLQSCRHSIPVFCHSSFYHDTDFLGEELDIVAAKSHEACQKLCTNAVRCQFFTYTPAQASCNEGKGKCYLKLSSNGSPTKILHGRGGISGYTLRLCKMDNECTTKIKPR
T2 sequence (P03951 388-625 limits assumed): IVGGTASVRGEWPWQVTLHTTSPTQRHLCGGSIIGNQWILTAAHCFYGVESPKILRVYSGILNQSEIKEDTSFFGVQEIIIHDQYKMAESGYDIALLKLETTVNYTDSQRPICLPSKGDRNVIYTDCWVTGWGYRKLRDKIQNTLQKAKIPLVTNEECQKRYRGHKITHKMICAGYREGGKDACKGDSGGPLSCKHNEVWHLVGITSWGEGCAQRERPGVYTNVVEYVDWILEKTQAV
Text: (§2) The recombinant anticoagulant polypeptides in the present invention were expressed in E. coli and purified in our laboratory, of which the activities against coagulation factors were investigated by chromogenic assays. Human coagulation factors IIa (thrombin), Xa, XIa, XIIa, EGR-fXa were products of Haematologic Technologies Inc (United States). Recombinant fVIIa was products of Novo-Nordisk (Denmark). Recombinant soluble tissue factor (sTF) was purchased from Protgen (Beijing, China). The following chromogenic substrates were used for these coagulation factor assays: S2765 for human fXa, S2288 for human fVIIa and fIIa, 52366 for human fXIa and fXIIa, respectively.
(§3) The chromogenic assays were carried out in a total reaction volume of 100 μl in individual wells of a 96-well microtiter plate. 50 μl fIIa, fXa, fXIa, or fXIIa (final concentration: 1 nM) was incubated with 10 μl recombinant anticoagulant polypeptide at various concentrations (or PBS control group) Assays for the detection activity of fVIIa: 50 μl fVIIa+TF (1 μM) and EGR-fXa (final concentration 500 nM) was incubated for 15 mins at 25° C., respectively. After the addition of 40 μl of prewarmed chromogenic substrate to a final concentration of 400 μM, the changes of absorbance at 405 nm were monitored by using an E1x808 kinetic microtiter reader. The data were used to calculate the velocities of response.

human fIIa (thrombin) = target: T3, human fIIa (thrombin) (Homo sapiens, UniProt P00734); assay: Chromogenic assay, fIIa (thrombin); assay type: biochemical
T3 construct: Human coagulation factors IIa (thrombin), Xa, XIa, XIIa, EGR-fXa; purchased Haematologic Technologies Inc (United States)
Text: as §2, §3

human fXa = target: T4, human fXa (Homo sapiens, UniProt P00742); assay: Chromogenic assay, fXa; assay type: biochemical
T4 construct: Human coagulation factors IIa (thrombin), Xa, XIa, XIIa, EGR-fXa; purchased Haematologic Technologies Inc (United States)
T4 sequence (P00742 41-179 limits assumed): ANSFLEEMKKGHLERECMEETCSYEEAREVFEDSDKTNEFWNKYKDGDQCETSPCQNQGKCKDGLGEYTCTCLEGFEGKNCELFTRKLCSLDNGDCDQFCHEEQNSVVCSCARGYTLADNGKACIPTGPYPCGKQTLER
T4 sequence (P00742 235-488 limits assumed): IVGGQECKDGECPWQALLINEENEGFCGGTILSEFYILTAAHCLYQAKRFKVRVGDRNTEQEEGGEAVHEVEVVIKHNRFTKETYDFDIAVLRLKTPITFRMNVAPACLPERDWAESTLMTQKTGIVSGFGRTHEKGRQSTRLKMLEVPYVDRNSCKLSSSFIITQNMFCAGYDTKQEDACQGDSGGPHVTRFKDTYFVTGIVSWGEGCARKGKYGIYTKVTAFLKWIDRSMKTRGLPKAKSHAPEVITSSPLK
Text: as §2, §3

human fXIIa = target: T1, human fXIIa; assay: Chromogenic assay, fXIIa; assay type: biochemical
Text: as §2, §3

fVIIa/TF = target: T5, fVIIa/TF (Homo sapiens, UniProt P08709); assay: Chromogenic assay, fVIIa/TF; assay type: biochemical
T5 construct: Recombinant fVIIa was products of Novo-Nordisk (Denmark); purchased Novo-Nordisk (Denmark) for fVIIa; Protgen (Beijing, China) for sTF; Haematologic Technologies Inc for EGR-fXa
T5 sequence (P08709 61-212 limits assumed): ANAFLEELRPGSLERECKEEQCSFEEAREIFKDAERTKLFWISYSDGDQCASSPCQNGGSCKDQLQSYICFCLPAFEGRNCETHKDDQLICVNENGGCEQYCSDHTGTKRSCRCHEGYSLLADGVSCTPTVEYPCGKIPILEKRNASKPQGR
T5 sequence (P08709 213-466 limits assumed): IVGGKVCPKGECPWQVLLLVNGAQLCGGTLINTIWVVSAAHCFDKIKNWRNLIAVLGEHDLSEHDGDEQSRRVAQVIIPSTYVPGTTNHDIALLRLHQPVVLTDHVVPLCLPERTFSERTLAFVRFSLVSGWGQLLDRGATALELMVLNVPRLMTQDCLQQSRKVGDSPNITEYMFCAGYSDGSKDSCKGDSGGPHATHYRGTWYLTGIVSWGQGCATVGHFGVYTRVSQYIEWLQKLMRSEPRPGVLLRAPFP
T5 sequence (P13726 33-251 partner limits assumed): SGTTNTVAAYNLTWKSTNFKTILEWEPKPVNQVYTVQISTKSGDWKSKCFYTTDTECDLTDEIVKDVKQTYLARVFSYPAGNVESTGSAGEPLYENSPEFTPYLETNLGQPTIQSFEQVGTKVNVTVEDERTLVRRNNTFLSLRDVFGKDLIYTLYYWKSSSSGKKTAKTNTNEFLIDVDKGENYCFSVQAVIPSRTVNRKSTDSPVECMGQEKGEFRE
Text: as §2, §3

BALb/c mice = assay: Mouse tail bleeding time; assay type: in vivo; settings: tail transected after 10 min
Experimental: After 10 min, the distal tip 1.5 mm of the mouse tail was transected and the blood oozed was soaked with filter paper very 30 seconds until the bleeding stops. The bleeding time was defined as the time elapsed from the tail transection to the stoppage of bleeding.

Molecule	prolongation of aPTT (in words) (normal human plasma [1])	aPTT (normal human plasma [1]; 100 nM)	multiples of prolonging aPTT (normal human plasma [1]; 100 nM)	aPTT (normal human plasma [1]; 500 nM)	multiples of prolonging aPTT (normal human plasma [1]; 500 nM)	prolongation of PT (in words) (normal human plasma [2]; 100 nM and 500 nM)	PT (normal human plasma [2]; 100 nM)	PT (normal human plasma [2]; 500 nM)	inhibition of the activity of fXIa (human fXIa)	inhibition of the activity of fXIa (in words) (human fXIa)	effect on fIIa activity (in words) (human fIIa (thrombin); 100 nM)	effect on fIIa activity (in words) (human fIIa (thrombin); 200 nM)	effect on fXa activity (in words) (human fXa; 100 nM)	effect on fXa activity (in words) (human fXa; 200 nM)	effect on fXIIa activity (in words) (human fXIIa; 100 nM)	effect on fXIIa activity (in words) (human fXIIa; 200 nM)	effect on fVIIa/TF activity (in words) (fVIIa/TF; 100 nM)	effect on fVIIa/TF activity (in words) (fVIIa/TF; 200 nM)	Bleeding time (BALb/c mice; 100 μg·kg^−1 tail vein)	Bleeding time (BALb/c mice; 1 mg·kg^−1 tail vein)	other results
B1	significantly prolong aPTT	78.7 ± 8.1 s	1.96	218.3 ± 5.9 s	5.44	couldn't prolong PT	11.7 ± 0.5 s	12.7 ± 0.4 s	more than 90%	almost completely inhibited	without affecting	without affecting	without affecting	without affecting	without affecting	without affecting	without affecting	without affecting	8.30 ± 2.0 min	8.26 ± 1.9 min	Bleeding time (BALb/c mice; 5 mg·kg^−1 tail vein): 8.31 ± 2.2 min
B2	significantly prolong aPTT	80.8 ± 3.2 s	2.01	235.3 ± 5.4 s	5.87	–	13.0 ± 0.7 s	19.6 ± 0.9 s	more than 90%	–	without affecting	–	without affecting	–	without affecting	–	without affecting	–	–	–	prolongation of PT (in words) (normal human plasma [2]; 100 nM): almost couldn't prolong PT; prolongation of PT (normal human plasma [2]; 500 nM): less than 1.6 times; inhibition of the activity of fVIIa/TF (fVIIa/TF; 200 nM): about 15%
B3	significantly prolong aPTT	79.7 ± 2.9 s	1.99	238.6 ± 8.1 s	5.95	–	12.8 ± 0.7 s	17.6 ± 0.6 s	more than 90%	–	without affecting	–	without affecting	–	without affecting	–	without affecting	–	–	–	prolongation of PT (in words) (normal human plasma [2]; 100 nM): almost couldn't prolong PT; prolongation of PT (normal human plasma [2]; 500 nM): less than 1.6 times; inhibition of the activity of fVIIa/TF (fVIIa/TF; 200 nM): about 15%
B4	significantly prolong aPTT	83.0 ± 1.2 s	2.07	219.3 ± 6.2 s	5.47	couldn't prolong PT	13.5 ± 0.4 s	12.3 ± 0.8 s	more than 90%	almost completely inhibited	without affecting	without affecting	without affecting	without affecting	without affecting	without affecting	without affecting	without affecting	8.38 ± 1.3 min	8.29 ± 2.5 min	Bleeding time (BALb/c mice; 5 mg·kg^−1 tail vein): 8.32 ± 1.8 min
B5	significantly prolong aPTT	77.9 ± 2.9 s	1.94	226.8 ± 6.6 s	5.66	couldn't prolong PT	12.2 ± 0.6 s	12.6 ± 0.4 s	more than 90%	almost completely inhibited	without affecting	without affecting	without affecting	without affecting	without affecting	without affecting	without affecting	without affecting	8.30 ± 2.3 min	8.31 ± 1.0 min	Bleeding time (BALb/c mice; 5 mg·kg^−1 tail vein): 8.33 ± 2.4 min
